Literature values as cited in PMC7680388.

Target: Ubiquitin (Homo sapiens) (UniProt P0CG48)

Sequence of Rpn13 (Q16186 2-407): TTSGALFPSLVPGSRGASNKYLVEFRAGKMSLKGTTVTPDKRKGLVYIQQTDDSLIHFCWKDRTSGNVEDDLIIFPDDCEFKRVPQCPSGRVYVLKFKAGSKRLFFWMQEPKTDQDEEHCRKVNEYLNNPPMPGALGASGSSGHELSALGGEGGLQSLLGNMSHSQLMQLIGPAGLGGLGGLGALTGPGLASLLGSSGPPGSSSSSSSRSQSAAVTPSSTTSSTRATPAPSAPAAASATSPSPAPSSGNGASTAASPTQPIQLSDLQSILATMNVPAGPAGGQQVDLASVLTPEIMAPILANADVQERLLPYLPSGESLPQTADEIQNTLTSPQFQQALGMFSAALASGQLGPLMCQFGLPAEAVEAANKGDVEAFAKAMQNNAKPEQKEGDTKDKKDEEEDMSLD

## Rpn13 (from UniProt Q16186)
  Kd: 40 µM
